Target: T1, Human CD19, wild-type full-length protein expressed on cells (human, UniProt P15391 20-556)
T1 construct: also called WT CD19; CD19 wild type protein
T1 sequence: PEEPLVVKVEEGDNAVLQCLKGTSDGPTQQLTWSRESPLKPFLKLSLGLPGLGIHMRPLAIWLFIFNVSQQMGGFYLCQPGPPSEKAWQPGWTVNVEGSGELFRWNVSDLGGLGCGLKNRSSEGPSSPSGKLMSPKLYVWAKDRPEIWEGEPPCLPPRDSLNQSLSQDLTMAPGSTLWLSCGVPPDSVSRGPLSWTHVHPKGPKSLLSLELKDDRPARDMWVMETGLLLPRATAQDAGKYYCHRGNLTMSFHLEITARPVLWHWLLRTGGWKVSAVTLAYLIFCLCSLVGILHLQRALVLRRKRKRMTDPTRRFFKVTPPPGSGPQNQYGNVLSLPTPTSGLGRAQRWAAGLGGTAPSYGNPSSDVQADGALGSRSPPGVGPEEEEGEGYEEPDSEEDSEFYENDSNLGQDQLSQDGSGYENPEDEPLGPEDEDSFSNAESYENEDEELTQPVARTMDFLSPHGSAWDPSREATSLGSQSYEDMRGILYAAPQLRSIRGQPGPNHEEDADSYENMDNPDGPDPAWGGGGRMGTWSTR
Assay: scFv clone screen on NALM6 cells with and without CD19
Description: To ensure that the up to (30) clones could recognize native CD19 expressed on tumor cells, the clones (scFv) were also screened against NALM6 tumor cell line positive (+) CD19 expression (NALM6 cell line⁺ CD19). CD19 knockout Nalm6 cell line (NALM6 cell line⁻ CD1; or CD19KO Nalm6 cell line) were used as a negative control for the selection. CD19KO Nalm6 cell lines used for the screen were engineered CRISPR knocked-out (KO) Nalm6-CD19KO cells. Clones that bound CD19⁺ NALM6 tumor cells, but not CD19-NALM6 tumor cells (CD19KO) were selected (Step 4).

B1: CD19 11 scFv (P7) (scFv)
scFv: DIQMTQSPSSLSASVGDRVTITCRASQSISSYLNWYQQKPGKAPKLLIYAASSLQSGVPSRFSGSGSGTDFTLTISSLQPEDFATYYCQQTGAVPYTFGQGTKVEIKGGGGSGGGGSGGGGSEVQLLESGGGLVQPGGSLRLSCAASGFTFRDYAMSWVRQAPGKGLEWVSAISESGIDTYYADSVKGRFTISRDNSKNTLYLQMNSLRAEDTAVYYCARVAGYDSDSSTYYDYMDVWGQGTLVTVSS
notes: also called 48; clone 48
B1: binds.

B2: CD19 10 scFv (P6) (scFv)
scFv: DIQMTQSPSSLSASVGDRVTITCRASQTISRYLNWYQQKPGKAPKLLIYAASSLQSGVPSRFSGSGSGTDFTLTISSLQPEDFATYYCQQSYRPPLTFGQGTKVEIKGGGGSGGGGSGGGGSEVQLLESGGGLVQPGGSLRLSCAASGFTFSSYAMSWVRQAPGKGLEWVSTISAGGHGTYYADSVKGRFTISRDNSKNTLYLQMNSLRAEDTAVYYCARGAGYFDYWGQGTLVTVSS
notes: also called 47; clone 47
B2: binds.

B3: CD19 15 scFv (P9) (scFv)
scFv: DIQMTQSPSSLSASVGDRVTITCRASQPIRPYLNWYQQKPGKAPKLLIYDASSLQSGVPSRFSGSGSGTDFTLTISSLQPEDFATYYCQQSYSAPYTFGQGTKVEIKGGGGSGGGGSGGGGSEVQLLESGGGLVQPGGSLRLSCAASGFTFSSYAMSWVRQAPGKGLEWVSVISGGGANTYYADSVKGRFTISRDNSKNTLYLQMNSLRAEDTAVYYCARDWRYFDHWGQGTLVTVSS
notes: also called 50; clone 50
B3: binds.

B4: CD19 18 scFv (P11) (scFv)
scFv: QSVLTQPPSVSGAPGQRVTISCTGSSSNIGAGYDVHWYQQLPGTAPKLLIYGTKNRPSGVPDRFSGSKSGTSASLAITGLQAEDEADYYCQSYDVRLKGWVFGGGTKLTVLGGGGSGGGGSGGGGSQLQLQESGPGLVKPSETLSLTCTVSGGSITSSSYYWGWIRQPPGKGLEWIGSIYYTGTTYYNPSLKSRVTISVDTSKNQFSLKLSSVTAADTAVYYCARYVGLSGGFDYWGQGTLVTVSS
notes: also called 52; clone 52
B4: binds.

B5: CD19 7 scFv (P5) (scFv)
scFv: DIQMTQSPSSLSASVGDRVTITCRASQSISKYLNWYQQKPGKAPKLLIYDASSLQSGVPSRFSGSGSGTDFTLTISSLQPEDFATYYCQQSYTIPLTFGQGTKVEIKGGGGSGGGGSGGGGSQVQLVQSGAEVKKPGSSVKVSCKASGGTFSSYAFSWVRQAPGQGLEWMGGIVPLFGAVEYAQKFQGRVTITADESTSTAYMELSSLRSEDTAVYYCAREKGFYRYFDHWGQGTLVTVSS
notes: also called 46; clone 46
B5: binds.

B6: CD19 23 scFv (P12) (scFv)
scFv: DIQMTQSPSSLSASVGDRVTITCRASQSIYSYLNWYQQKRGKAPKLLIYDASSLQSGVPSRFSGSGSGTDFTLTISSLQPEDFATYYCQQSYTAPPTFGQGTKVEIKGGGGSGGGGSGGGGSEVQLLESGGGLVQPGGSLRLSCAASGFTFSNYAMSWVRQAPGKGLEWVSAISESGHGTYYADSVKGRFTISRDNSKNTLYLQMNSLRAEDTAVYYCARLDWAGFDVWGQGTLVTVSS
notes: also called 53; clone 53
B6: binds.

B7: CD19 16 scFv (P10) (scFv)
scFv: QSVLTQPPSVSGAPGQRVTISCTGSSSNIGAGYDVHWYQQLPGTAPKLLIYGNNNRPSGVPDRFSGSKSGTSASLAITGLQAEDEADYYCQSYDVSLGVWVFGGGTKLTVLGGGGSGGGGSGGGGSQLQLQESGPGLVKPSETLSLTCTVSGGSISSPSYYWGWIRQPPGKGLEWIGSIYYTGATYYNPSLKSRVTISVDTSKNQFSLKLSSVTAADTAVYYCARYGPAGVGFDYWGQGTLVTVSS
notes: also called 51; clone 51
B7: binds.

B8: CD19 14 scFv (P8) (scFv)
scFv: DIQMTQSPSSLSASVGDRVTITCRASQSISNYLNWYQQKPGKAPKLLIYAASSLQSGVPSRFSGSGSGTDFTLTISSLQPEDFATYYCQQAYSAPITFGQGTKVEIKGGGGSGGGGSGGGGSEVQLLESGGGLVQPGGSLRLSCAASGFTFGDYAMSWVRQAPGKGLEWVSAISRGGHGTYYADSVKGRFTISRDNSKNTLYLQMNSLRAEDTAVYYCARLVGYGLDYWGQGTLVTVSS
notes: also called 49; clone 49
B8: binds.

From patent US20240123068A1 (KITE PHARMA, published 2024)
